Assay: soluble on expression in E. coli; label from the status in PepcDB or PDB records

Sequence	soluble on expression in E. coli
MFHLKTFSDMVESIQITSFHNAELLNFMIDEVKDARTLSKNEIIPTLDELDKVLATFKKGIAMNKTSEYSEKITALDAVRSKAFRNFIGCIQGETHRPEEDHREAARRLFILLKPYNNLNRKSYRNKTELMYKLVEVLRSDKHASDVQTVNVSAWIDKMDNANKAFDQLFDLRDNTEGERLIINNREMRHRIRLHYNRLLEIIEALLVLHADRPLEGFVGRHNERVAKMKALFALRASIGTKSTREKRDVLRSLAIGLGWSLPAGQEDFEFFAGTRILHPTEHRWYCLGKKDNIITLVLYKGKKKQSSSSSSNSSVDLPDLPAPPPSQPDNGSSGGGGEQGGGGSGGL	not soluble
MGSDKIHHHHHHMNQDLLHKYFKGETSVDEEKRILNWVDESEENRKTLQKERMLFDIALFTDSKRKMREKAGAGARIIPMLRWSARIAAAVIVAVSCGFLINEYQYDKLAQLQTVTVPAGQRAQITLADGTKVWLNSESTLSYRSDFGRRDRDVELDGEAYFEVAKNKEIPFYVNTETNQVRVVGTHFNVCAYKGSNEFETTLVEGIVDIYAYDNERPLTRLTKNEFFGSYQGKYKKAVLPSYDYLRWREGLYCFDDSPFSCILTKLEKYYNVKITVENPKVLNYRCTGKFKEQDGVEHILKVIQKDHPFTYSISEEGDSIRIE	not soluble
MGSDKIHHHHHHDKDFGGLENIGWNEKPLQITTRILTTKSTNFIQEFKEGSMLGLQITSGTVDDLYNGISTYKNVSVKAYRVNGKIRWQQSPEVILDSNEATIYAYYPYQEDINFNARQIPVKLAPNALETDDYMYGTHAIGQKAVNSTSPLVLLSMNHALSLISFQLNLSKGKTGAFIISSVQVGNKPGGTTLVSEGTLDITTGDIIGSTARSTSASTVLSLTNPVTLINEKYCDPMRLMVIPPSGTIGTGDVETLFTINGETYKFDIPANTQWEKGKKYLYKLSFNGRSLQLRDVSITDWLPGNDEGLIGNIM	not soluble
NIQGRTARQTDYLFQIKKHDITFGIGPAGTGKTYLAVACAVDALERELVSRVILVRPAVEAGERLGFLPGDMVQKVDPYLRPLYDALYDLMGFEKVSKHFERGIIEIAPLAFMRGRTLNQSFIILDEAQNTTAEQMKMFLTRIGFGSKAVITGDITQIDLPKHQKSGLVEAERVLKNVNGIAFTRFRTEDVVRHPLVQRIVDAYEKYAPDK	not soluble
MSYKSSKYNLFIERKREVISFNTLRNIIAKCDIETKEILENETFNKLPPDLLNKMISEGIIVNKELNELNIIKLTRMMYYGQLLHYLSIGLTLVMTYSCNLRCPYCYEGDIKSKGGLLTREKIETILTFASAHAQGDKKPTISVSFYGGEPLLNWKGCEYTLQRLEEMKENKEIRDYSAGFVTNGTLINEDIVDAINNYNVYSMQITLDGPKEIHDKRRIKSNGEGTFDQIIENIKLLNRRIANKNFHLALRINVDKTNYKKIPELLDFLKDEGLGGIPISYGIVRGNLPYCSSNCGVYFSGSDLQKYLPYLWKEAYRRGFEVWTRPNLRFIYCGYDNPFGYVIDPELKVYPCWEMVGIEDYQIGEIQKDGTMKITPFYYDAKSRDPTEYDECKNCKLLPVCMGGCAMESIRKNGHPNGPGCDINKYIWKEGLKFYLMKKYPNLFSKETLIENLGRVPNRDEQTKNRIMFNT	not soluble
IKTTKALQLNDEQQVAVDQITQAVDQAATTTFLLEGVTGSGKTEVYLQSMAAALVQGKTALMLVPEISLTPQMVQRVKGRFGKAVAVLHSGLSSGEKYDEWRRIQRGEAQVVVGARSAVFAPLKNLGLIVMDEEHESTYKQDDAPRYHARQVALWRSRYHNCPVVLGSATPSLETRARAEKG	not soluble
ASSKNLSETLFQNHKQAKETSSLTQYMPSSLELLDTRREQSSQAWYRNLRRLQWIWQGVDPVEQEEILARIASSKHSRTHDEWLDTVMGYRSGNWTYEWTRVGMLHQKQAAERQGEEAADQMFAAALYYSIAGYPHLRNDNLALQAQVLANNAYQEAAKLTGFVVKRLEFSYQNKKIAGYLHLRNTDSPKPVVLVSAGLDSLQTDMWRLFRDYLAKRDIAMLTIDMPSLGASSHWPLTEDSSCLHQAVLNQLADLPWVDHFRIGLIGFRFGGNAMARLAFLESDKVKACVSLGAPIHDIFTSPNKLAAMPKMYLDVLASRLGKNVVDVRSLSGQLMAWSLKVQGFMSGRRTKTPILALGLEGDPVSPYSDNQLVALFSQGGQAKKVKSKTISQGYEQSLDLAINWLEDELC	not soluble
MSLNIETIVKGRRMITKFPPQWQEKLDQVAFTHLTPIQEQAFQPIVDGKNFLGISPTGTGKTLAYVFPSLLALTPKKSQQLLILAPNTELAGQIFEVTKDWAQPLGLTAQLFISGTSQKRQIERLKKGPEILIGTPGRIFELIKLKKIKMMSVNTIVLDEYDELLGDSQYDFVQKISHYVPRDHQMVYMSATNKVDQTSLAPNTFCIDLSEQTNDAIQHFYLMVDKRERTDLLRKFANIPHFRALVFFNSLSDLGATEERLQYNGAAAVSLASDINVKFRKTILEKFKSHQLSLLLATDLVARGIDIDNLDYVIHFDVARDKENYTHRAGRTGRMGKSGIVITFVSHPEDLKKLKKFAKVSEISLKNQQLHFINEGHHHHHH	not soluble
MSLNIAKGEPVKITTIDVGNKSFPVKITFIDRKGVSYYIDVAMSRTNSGMEPADFQAEKRINYFPNAFSFTNPDVKTRESIQSKYIGQSVYPQKTIRVKQTELLRYTPLHIKDVQPEKAGTSATLLLTDIQGNTYQVKVDLKYDPILKNEDFIEDLFGFSDIRKKYPNISESNWLMLAKGEVKPGMTTEECKLAIGEPIEIRVRTDTRFETWLYRGKILEFENGILLRAKEGHHHHHH	soluble
MGSDKIHHHHHHMVDEILKLKKEKGYIILAHNYQIPELQDIADFVGDSLQLARKAMELSEKKILFLGVDFMAELVKILNPDKKVIVPDRSATCPMANRLTPEIIREYREKFPDAPVVLYVNSTSECKTLADVICTSANAVEVVKKLDSSVVIFGPDRNLGEYVAEKTGKKVITIPENGHCPVHQFNAESIDAVRKKYPDAKVIVHPECPKPVRDKADYVGSTGQMEKIPEKDPSRIFVIGTEIGMIHKLKKKFPDREFVPLEMAVCVNMKKNTLENTLHALQTESFEVILPKEVIEKAKKPILRMFELMG	not soluble
MGHPRSIRSFVLRQSHMTAAQQRAIDTLWDSFGIDYQATPADLDARFGSSRPKILEIGFGMGTATAEIARRLPETDFLAIDVHGPGVGNLLKLIDENHLENIRVMRHDAVEVVENMLQDGSLDGIHIFFPDPWHKKRHHKRRLIQAPFIAKLLPKLKTGGYIHLATDWEEYAQQMLEVLSSFDSLQNTAADYAPTPDYRPETKFEARGKRLGHGVWDLVFKRIGLEHHHHHH	soluble
MIHLVDYALLKPYLTVDEAVAGARKAEELGVAAYCVNPIYAPVVRPLLRKVKLCVVADFPFGALPTASRIALVSRLAEVADEIDVVAPIGLVKSRRWAEVRRDLISVVGAAGGRVVKVITEEPYLRDEERYTLYDIIAEAGAHFIKSSTGFAEEAYAARQGNPVHSTPERAAAIARYIKEKGYRLGVKMAGGIRTREQAKAIVDAIGWGEDPARVRLGTSTPEALL	soluble
MENIFLKRLEFKAFEEDSVFSKIEGLNKFNSLNFKKPITFFSGENGTGKSTLLEAIAVNWGFNPEGGSINFNFSTKDTHLDLHNYLTVGKSVKRATDGFFLRAESFYNVATYAENIDLDFSEYGDKSLHHQSHGESFLNLVNHRFRGNGLYLLDEPEAALSPQRQLALMISIKKLIDEGSQFIIVSHSPILLAMPDSQIISFDKDSPLEITYEESMPYEITSLFLNNKNRILSHLFAELEHHHHHH	soluble
MKNFHPTGNCPVRDVISRLGDKWSMLVLITLNANGTMRFSDIHKTIEDISQRMLTVTLRTLESDGLIERKIYAEVPPRVEYYLTDTGGTLIPHIEGLVGWALENMDTILEHRKSN	not soluble
MSLVSVIILASGNSQRMGQNKLFLKYQGKTFLEHTLTLVNQLDVLERILVVSPENQPAFPLPKNIQLILNHQWQEGQSSSIRLGTEQARGAGYLYLPSDQPLLTPKMLQLVLDKCQRNKIVVPLQKDGCPSSPVLFGNQFRQELLTLTGEKGGRMIYERFPEAVQMLRIATPGRLKDIDTPEEYQKLIQETNSLEHHHHHH	not soluble
MGSDKIHHHHHHMDSKSNSELARLEQAARAAWLYYVAKNTQDEIAQKLEVSRQSAQRLVALAVSEGLIKVRLDHPIVKCMELGQQLTQAFNLLECEIVPSDPADDSSVHGLAQCGAGVLERYLKSEQPKTLAFGTGRALKACIDELPSMQCPQHKIVSLLGNMMLDGSASAFDIVVSMANRVQAKHYPMPLPVIATSVAEKQLLHDLAPVKSIFELVIQADATFVGIGHMGAESPLLLDGFINQSQLTELINDNATGEIISWVYNQQGQLLDHSINELVMSSPLRIDSNKPVYGIAAGQHKVDAIFSALQGRLINSLITNEYTAERILAKLK	not soluble
MSSLADLINLDLSDSTDQIIAEYIWIGGSGLDMRSKARTLPGPVTDPSQLPKWNYDGSSTGQAPGDDSEVIIYPQAIFKDPFRRGNNILVMCDAYTPAGEPIPTNKRHAAAKIFEDPSVVAEETWYGIEQEYTLLQKDIKWPVGWPVGGFPGPQGPYYCGVGADKAFGRDIVDSHYKACLYAGINVSGTNGEVMPGQWEFQVGPTVGIAAADQVWVARYILERITELAGVVLSLDPKPIPGDWNGAGAHTNYSTKSMREDGGYEVIKKAIEKLGLRHKEHIAAYGEGNERRLTGKHETADINTFLWGVANRGASIRVGRDTEQAGKGYFEDRRPASNMDPYTVTSMIAESTILWKP	soluble
MAYWLMKSEPDELSIEALARLGEARWDGVRNYQARNFLRAMSVGDEFFFYHSSCPQPGIAGIARITRAAYPDPTALDPESHYHDAKATTDKNPWSAVDVAHVQTFPRVLELGRLKQQAGLVELPLVQKGSRLSVMPVTPEQWAVIVALRLEHHHHHH	soluble
MPLNRNHSELRSGKVNLKNGDPFTIALFGVDSDEKRKQQGGGERSDTIMVLSINPKEKKTELVSIPRDTKAEIAGRGTEEKINHAYAYGGPNMAVKTIEKLMNVPIDHYATIDMDGLHDMIDTLGGVDVVSNSTFTMGANHFVKGEKTHVDGDAAMDFIRSRKEDGAGGDFGRQERQQLILEAMADKMTSASSITHFNTLMNQIQKNVKTDLKLGDLNTIRTKYKDANDQVNRHQLEGEGGIQNDGLYYFIPSDASKNENTQLLRDNLNLLEHHHHHH	soluble
MSSDMRVHSWSCSYYLDLEKQWVSGKLTLTPHSLKFIVEKTEEVLVGLPLSSIIEIRKESSLFIFGAITVLEKGQTKHWFSSLQPSRNVVFNVIEHFWRELLLSQPGTAANIPSHVTRGQELIGLMANSQKRMEDTAKDLQQQSEQLDSVLKGLEKMESDLDVADRLLTELETPSWWPFGSKFWKMPAEENLKEGVSSTCEPFGKEGVVITVPAIISERAESHSKLGKLTVLVSALEIYDSCSLLLHRFEKEDVDDIKVHSPYEVSIRQRFIGKPDVAYQLISAKMPEVIPILEVQFSSKIELLEDALVLRNKVFASSAERHAASRPKGCTPHRELPTGGQEGEQLQLQKNLPLFSEGEAQELTQILSKMKGLALDTEAELERQDAALDGITVAVDRATLNVDKQNRRMRKLM	not soluble
MSIQIPRGTQDILPGTVELWQYIEGQAREICRRYNYKEIRTPIFEHTELFLRGVGDTTDIVQKEMYSFQDRGERSLTLRPEGTAPVVRSYVENKMFGDATQPTKLYYIGQMFRYERPQAGRYRQFVQFGIEAIGSNDPAIDAEVIALAVEFYRGMGLKNIKVVLNSLGDAASRQAHRDALIAHFEPRIGEFCSDCQSRLEKNPLRILDCKKDRNHELMGTAPSITEYLNEDSAVYYDKVQELLTMMDVPFEKDPNLVRGLDYYQHTVFEIMSEAEGFGAITTLSGGGRYNGLVQEIGGPEMPGIGFAMSIERLIMALKAENIELPIEHSIDCYVVALGEKAKDHAAKVAFDLRKAGLAVEKDYLDRKMKAQFKSADRLKAKFVAVLGEDELDKGIINLKDMATGEQEEVALDVFASYVAEKLI	soluble

— the DeepSol protein solubility set
